Target: purified human SLAMF4 (hSLAMF4) protein, recombinant (human) (UniProt Q9BZW8)
Test: MST; Monolith NT.115; GST–lytC_22 in a gradient (11 to 0.34375 μg μl^-1) mixed 1:1 (vol/vol) with 0.2 μg μl^-1 fluorescently pre-labelled recombinant Slamf4, 30 min at room temperature; medium MST power; apparent

Chain of UniProt Q9BZW8 (Q9BZW8 22-229): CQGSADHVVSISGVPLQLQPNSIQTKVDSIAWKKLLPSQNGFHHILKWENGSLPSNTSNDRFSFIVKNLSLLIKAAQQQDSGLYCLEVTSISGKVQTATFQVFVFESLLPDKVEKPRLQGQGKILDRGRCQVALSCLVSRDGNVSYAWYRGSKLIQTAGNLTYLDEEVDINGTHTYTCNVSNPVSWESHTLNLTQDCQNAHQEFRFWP

Substance: GST–lytC_22 (recombinant glutathione S-transferase-tagged N-acetylmuramoyl-L-alanine amidase lytC_22 of P. anaerobius) (natural protein)
- Kd: 40.1 nM
